Source: patent publication US12312397B2, “Anti-O2 antibodies and uses thereof” (priority 2016, dated 2025)
Substitutions are numbered along the chain they refer to. Names and notes keep the numbering of the source.

Columns and labels:
[1] = tested on: K. pneumoniae 8570ΔcpsBLux (O2); assay: Opsonophagocytic killing (OPK) assay, O2 capsule mutant; format: cell-based, Klebsiella pneumoniae; design: key to D Capsule OPK O2: +++: Strongly positive activity; +: Positive activity; +/−: Somewhat positive depending upon the test conditions; conditions: for D Capsule OPK O2: capsule mutant strain 8570ΔcpsB lux (O2); for OPK activity against O2 capsule mutant: secondary screening
Method: OPK activity of anti-O2 LPS mAbs was tested against O1 and O2 strains. Briefly, log phase cultures of luminescent K. pneumoniae strains 8570ΔcpsBLux (O2) and 43816ΔcpsBLux (O1) were diluted to ˜2×10^6 cells/ml. K. pneumoniae cells, 5e5/well dimethylformamide (DMF) differentiated HL-60 cells, cleared baby rabbit serum (1:10 Cedarlane), and a series dilution of antibodies (2 ng-2.5 μg/mL) were mixed in 96-well plates and incubated at 37° C. for two hours with shaking (250 rpm). The relative light units (RLUs) were then measured using a multi-mode microplate reader (Synergy 2, Biotek or envision multilabel plate reader, Perkin Elmer). The percentage of killing was determined by comparing RLU derived from assays with no antibodies to RLU derived from assays with anti-K. pneumoniae mAbs and assays performed with a negative control mAb. Positive killing was determined where the percentage of killing is above 40%.

[2] = tested on: O2 LPS activation of NF-κB in RAW264.7-lux cells; assay: LPS neutralization assay (NF-κB luciferase, RAW264.7-lux), O2 LPS; format: cell-based, murine; design: key to LPS Neut O2: +++: Strongly positive activity; +: Positive activity; +/−: Somewhat positive depending upon the test conditions; conditions: for LPS Neut O2: Table 7 summary; for neutralizing activity against O2 LPS (NF-κB activation): human IgG1 format; for neutralization of LPS-O2: secondary screening
Method: (§1) Activation of TLR4 receptors by bacterial LPS leads to downstream activation of the NF-κB transcriptional regulator. A decrease in induction of NF-κB-responsive luciferase activity was used to quantify LPS neutralization activity by LPS mAbs. A murine RAW264.7 macrophage cell line was engineered to carry a firefly luciferase reporter gene under the control of an NF-κB-responsive promoter (RAW264.7-lux). Serially diluted antibody stocks were mixed with LPS in a 1:1 ratio and incubated at 4° C. for 1 hr. Antibody/LPS mixtures were then diluted 1:10 into assay plates containing pre-seeded RAW264.7-lux cells (4e5 cells/well), which were then placed at 37° C. with 5% CO2 for 2.5 hours. Following incubations, Steady Glo solution (Promega) was added to each well and incubated for another 20 min protected from light. The relative light units (RLUs) were measured using a multi-mode microplate reader (Synergy 2, Biotek or envision multilabel plate reader, Perkin Elmer). The percentage of inhibition was determined by comparing RLU derived from assays with no antibodies to RLU derived from assays with anti-K. pneumoniae mAbs and assays performed with a negative control mAb. […] All mAbs were tested in human IgG1 format.

[3] = tested on: O1 LPS activation of NF-κB in RAW264.7-lux cells; assay: LPS neutralization assay (NF-κB luciferase, RAW264.7-lux), O1 LPS; format: cell-based, murine; conditions: human IgG1 format
Method: as §1

O2 LPS = assay: ELISA binding to O2 LPS; design: species or system Klebsiella pneumoniae; conditions: for binding to LPS-O2: secondary screening, ELISA; for binding to O2 LPS compared to parent antibody: sequence-optimized variants, FIG. 9
Method: The coated plates were incubated with cell culture supernatants from polyclonally stimulated lymphocytes (AMVBRA) or from monoclonal immortalized B cells (donor interrogations) containing fully human antibodies or with diluted plasma samples (PBMC donor selections) for 1 hour at room temperature. The plates were then washed with PBS containing 0.1% Tween-20 (PBS-T). Secondary antibody was added; either Alkaline Phosphatase-conjugated Goat Anti-Human IgG-AP (Southern Biotech, 2040-04, 1:1000 in PBS-B) or Peroxidase AffiniPure F(ab′)2 Fragment Goat Anti-Human IgG, Fc Fragment Specific (Jackson ImmunoResearch #309 036 098, 1:5000 in PBS-B) were used. Secondary antibodies were typically incubated for 1 h. Plates were washed three times with PBS-T, and P-NitroPhenyl Phosphate (pNPP, Sigma-Aldrich, cat #N2765-100TAB) or Sureblue (KPL, 53-00-03) substrates were added and incubated for 10 min or until the development of a colorimetric reaction. In the case of the HRP substrate Sureblue, the reaction was stopped by adding an equal volume of 0.2N HCl. The absorbance at 405 nm (pNPP) or 450 nm (Sureblue) was measured by a microplate reader (Biotek, Elx808).
The coated plates were incubated with serial dilutions of the monoclonal antibodies for 1 hour at room temperature. The plates were then washed with PBS containing 0.1% Tween-20 (PBS-T). Alkaline Phosphatase-conjugated Goat Anti-Human IgG (Southern Biotech, 2040-04, 1:1000 in PBS-B) was added. The secondary antibody reactions were incubated for 1 h. Plates were washed three times with PBS-T, and P-NitroPhenyl Phosphate (pNPP, Sigma-Aldrich, cat #N2765-100TAB) substrate was added and incubated for 30 min or until the development of a colorimetric reaction. The absorbance at 405 nm was measured by a microplate reader (Biotek, Elx808). The data was plotted with Graphpad Prism software. Representative mAbs from each class were tested for their binding to O1 LPS (FIG. 2A) and O2 LPS (FIG. 2B), and EC50 values were obtained (FIG. 2C). The majority of the anti-O2 LPS mAbs bound to both O1 and O2 LPS by ELISA. […] None of these LPS mAbs bound to the 03, 04, 05, 07, or 012 LPS serotypes (see e.g., FIG. 1A).

B1: 6F6: Class I mouse hybridoma anti-O2 mAb (Ms IgM); VH SEQ ID NO: 80, VL SEQ ID NO: 81 (antibody, V domains shown)
VH: QVHLQQSGSELRSPGSSVKLSCKDFDSDVFPIAYMGWIRQQPGHGFDWIGDILPNIGRTIYGEKFEDKATLDADTVSNTAYLELSSLTSEDSAIYYCARRGTSGAMDYWGQGTSVTVSS
VL: DVVMTQTPLFLPVSLGDQASISCRSSQGLVHSTGNTFLHWYLQKPGQSPKLLIYKVSNRFSGVPDRFSGSGSGTDFTLKISRVEAEDLGIYFCSQSTHIPYTFGGGTKLEIK
modifications: Description of Artificial Sequence: Synthetic6F6 VH polypeptide; Description of Artificial Sequence: Synthetic6F6 VL polypeptide
D Capsule OPK O2 [1]: +

B2: KPS3: Class III anti-O2 antigen human mAb; VH SEQ ID NO: 35, VL SEQ ID NO: 36 (antibody, V domains shown)
VH: QGQLVDSGGGVVQRGGSQRLSCAASGFSFRDYGMHWVRQAPGKGLEWVAFISYDGRDQYYADSVKGRFIISRDNSKNTLSLQMNSLRPEDTAVYYCGPFYNPSLYYPPWGHGLPVIVSS
VL: EVVLTQSPATLSLSPGERATLSCRASQSISSQLAWYQQKPGQAPRLLIHDASNRDTGVPDRFSGSGSGTDFTLTISSLEPEDFAMYYCLQRNNWPPWTFGQGTKVEIK
modifications: Description of Artificial Sequence: SyntheticKPS3 VH polypeptide; Description of Artificial Sequence: SyntheticKPS3 VL polypeptide
D Capsule OPK O2 [1]: +++
OPK activity against O2 capsule mutant [1]: strong OPK activity
LPS Neut O2 [2]: +/−
neutralizing activity against O2 LPS (NF-κB activation) [2]: moderate neutralizing activity
neutralization of LPS-O2 [2]: neutralized
neutralizing activity against O1 LPS (NF-κB activation) [3]: no activity
binding to LPS-O2 (O2 LPS): bound specifically

B3: KPS18: Class III anti-O2 antigen human mAb; VH SEQ ID NO: 98, VL SEQ ID NO: 99 (antibody, V domains shown)
VH: EVRLVESGGGLVKPGGSLRLSCAASGFTFKNAWMSWIRQAPGKGLEWVGRVKNEVDGGTIDYGVPVRGRFTISRDDSQGTLSLEMNSLREDDTGIYYCRAFWSGFPAGYWGQGTLVSVSS
VL: QSVLTQPPSLSAAPGQTVTIACSGSRSNIGSDSVSWFQQFPGTAPRVLMYDNNKRPSGISDRFSGSKSGTSVTLDITGLQTGDEADYYCATWDSSLSAYVFGSGTKVTVL
modifications: Description of Artificial Sequence: SyntheticKPS18 VH polypeptide; Description of Artificial Sequence: SyntheticKPS18 VL polypeptide
D Capsule OPK O2 [1]: +++
OPK activity against O2 capsule mutant [1]: strong OPK activity
LPS Neut O2 [2]: +/−
neutralizing activity against O2 LPS (NF-κB activation) [2]: moderate neutralizing activity
neutralization of LPS-O2 [2]: neutralized
neutralizing activity against O1 LPS (NF-κB activation) [3]: no activity
binding to LPS-O2 (O2 LPS): bound specifically

B4: antibody C: sequence-optimized KPN179, all frameworks germlined; VH SEQ ID NO: 188, VL SEQ ID NO: 191 (antibody, V domains shown)
VH: EVQLVESGGGLVKPGGSLRLSCAASGFTFSNAWMNWVRQAPGKGLEWVGRIKRKADGETTDYAAPVKGRFTISRDDSKNTLYLQMNSLKTEDTAVYYCTTRIVTTNDYWGQGTLVTVSS
VL: QSALTQPRSVSGSPGQSVTISCTGTSSDVGYYDYVSWYQQHPGKAPKLMIYDVNKRPSGVPDRFSGSKSGNTASLTISGLQAEDEADYYCASYAGGDTFVFGTGTKVTVL
modifications: Description of Artificial Sequence: SyntheticKPN179-FR-GL N35S-VH/KPN179-FR-GL-C105A-VL VHpolypeptide; Description of Artificial Sequence: SyntheticKPN179-FR-GL N35S-VH/KPN179-FR-GL-C105A-VL VL polypeptide
binding to O2 LPS compared to parent antibody (O2 LPS): significantly reduced binding

B5: antibody B: sequence-optimized KPN42; VH SEQ ID NO: 17, VL SEQ ID NO: 18 (antibody, V domains shown)
VH: EVQLVESGGGLVKPGGSLRLSCAASGFTFNDAWMNWVRQAPGKGLEWVGRIKKKHEGVTTDYPASVRGRFTISRDDSKNTVYLQMGRLRIEDTAIYYCTTRIVTTNDYWGQGTLVTVSS
VL: B4 VL with Y31A, T98I
modifications: Description of Artificial Sequence: SyntheticKPN42-v2016 VH polypeptide; Description of Artificial Sequence: SyntheticKPN42-v2016 VL polypeptide
binding to O2 LPS compared to parent antibody (O2 LPS): comparable binding

B6: antibody A: sequence-optimized KPN42, all frameworks germlined; VH SEQ ID NO: 26, VL SEQ ID NO: 27 (antibody, V domains shown)
VH: B4 VH with S30N, N31D, R53K, A55H, D56E, E58V
VL: B4 VL with Y31A, T98I
modifications: Description of Artificial Sequence: SyntheticKPN42-FR-GL-VH/KPN42-FR-GL-C105A-VL VH polypeptide; Description of Artificial Sequence: SyntheticKPN42-FR-GL-VH/KPN42-FR-GL-C105A-VL VL polypeptide
binding to O2 LPS compared to parent antibody (O2 LPS): comparable binding

B7: antibody D: sequence-optimized KPN179; VH SEQ ID NO: 187, VL SEQ ID NO: 190 (antibody, V domains shown)
VH: B4 VH with A63P, P65S, I72V, L81I, V95I
VL: B4 VL
modifications: Description of Artificial Sequence: SyntheticKPN179-FR-1-2-4-GL N35S-VH/KPN179-FR-GL-C105A-VL VHpolypeptide; Description of Artificial Sequence: SyntheticKPN179-FR-1-2-4-GL N35S-VH/KPN179-FR-GL-C105A-VL VLpolypeptide
binding to O2 LPS compared to parent antibody (O2 LPS): comparable binding
